Assay results published in the nanobody polyreactivity screen of Harvey et al. (2022).

Test: yeast display, Sf9 membrane polyspecificity reagent, FACS + sequencing; frameworks hold sequencing errors
Method in brief: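 In a synthetic yeast display library (Saccharomyces cerevisiae BJ5465), nanobody expression was induced with galactose for 36–48 hours. FACS gates were set low and high (top ~1%) using anti-HA fluorescence for expression and streptavidin fluorescence for binding of the Sf9 membrane reagent. Each polyreactivity label is drawn from the gate of origin.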

Sequence	polyreactivity (PSR sort gate)
QVQLVESGGGLVQAGGSLRLSCAASGYTFDTKAMGWYRLAPGKERELVAAISRIGGRTYADSVKGRFTISRDNAKNTVYLQMNSLKPEDTAVYYGAADTTWYPYGYDSWGQGTPVTVSS	low polyreactivity
QVQLVESGGGLVQAGGSLRLSCAASGYTFESYTMGWYRQAPGKEREFVAVISSSDTSTSYADSVKGRFTISRDNAKNTVYLQMNSLKPEDTAVYYCAAYSSPYYITYYWYNYDYWGQGTQVTVSS	low polyreactivity
QVQLVESGGGLVQAGGSLRLSCAASGYTFEVYAMGWYRQAPGKERELVADITTRTGNTYYADSVKGRFTISRDNAKNTVYLQMNSLKPEDTAVYYCAADLQRYWWWYEYWGQGTQVTVSS	high polyreactivity
QVQLVESGGGLVQAGGSLRLSCAASGYTFEYYAMGWYRQAPGKERELVAAISWSGGDTYYADSVKGRFTISRDNAKNTVYLQMNSLKPEDTAVYYCNADLYNYFYYANWYGAYDYWGQGTQVTVSS	low polyreactivity
QVQLVESGGGLVQAGGSLRLSCAASGYTFFYMGSYRQAPGKEREFVAVITYSGGSTYYADSVKGRFTISRDNAKNTVYLQLNSLKPEDTAVYYCAAAVWHYGRPGYLDSGYDYWGQGTQVTVSS	low polyreactivity
QVQLVESGGGLVQAGGSLRLSCAASGYTFGAYAMGWYRQAPGKERELVAAIPVRAGRTYYADSVKGRFTISRDNAKNTVYLQMNSLKPEDTAVYYCARRNPLGGNEHDYWGQGTQVTVSS	low polyreactivity
QVQLVESGGGLVQAGGSLRLSCAASGYTFGDYAMGWYRQAPGKERELVASITQTGGSTYADSVKGRFTISRDNAKNTVYLQMNSLKPEDTAVYYCNARYPWWESLRQTDRGKGFDYWGQGTQVTVSS	low polyreactivity
QVQLVESGGGLVQAGGSLRLSCAASGYTFGVYVMGWYRQAPGKERELVAAISGSTYYADSVKGRFTISRDNAKNTVYLQMNSLKPEDTAVYYCNADYYRSVLIIGVYEYDYWGQGTHVTVSS	low polyreactivity
QVQLVESGGGLVQAGGSLRLSCAASGYTFGYYAMGWYRQAPGKERELVAAISYSGGTTYYADSVKGRFTISRDNAKNTVYLQMNSLKPEDTAVYYCNKRYWVRTGKVSSYDYWGQGTQVTVSS	high polyreactivity
QVQLVESGGGLVQAGGSLRLSCAASGYTFHGYAMGWYRQAPGKERELVAVITQRGGSTSYADSVKGRFTISRDNAKNTVYLQMNSLKPEDTAVYYCEYYYWGQGTQVTVSS	low polyreactivity
QVQLVESGGGLVQAGGSLRLSCAASGYTFHGYAMGWYRQAPGKERELVAVITQRGGSTYYADSVKGRFTISRDNAKNTVYLQMNSLKPEDTAVYYCAARYAGPSPTDTGHDYWGQGTQVTVSS	low polyreactivity
QVQLVESGGGLVQAGGSLRLSCAASGYTFHGYAMGWYRQAPGKESELVAVITQRGGSTSYADSVKGRFTISRDNAKITVYLQMNSLKPEDTAVYYCNASAWLVVARTRYGYWGQGTQVTVSS	low polyreactivity
QVQLVESGGGLVQAGGSLRLSCAASGYTFHGYSMGWYRKAPGKERELVAVITQRGGSTSYADSVKGRFTISRDNAKNTVYLQMNSLKPEDTAVYYCNASAWLVVARTRYGYWGQGTQVTVSS	low polyreactivity
QVQLVESGGGLVQAGGSLRLSCAASGYTFHHNTMGWYRQAPGKERELVATISDGGSTNYADSVKGRFTISRDNAKNTVYLQMNSLKPEDTAVYYCAALYQQFQSALVPYFDVIEEDYWGQGTQVTVSS	low polyreactivity
QVQLVESGGGLVQAGGSLRLSCAASGYTFIGYAMGWYRQAPGKERELVAAISWSVGRTYYADSVKGRFTISRDNAKNTVYLQMNSLKPEDTAVYYCNAVSSFYYCYDYWGQVTQVTVSS	low polyreactivity
QVQLVESGGGLVQAGGSLRLSCAASGYTFINYAMGWYRQAPGKERELVAAITSTGSRTYYADSVKGRFTITRDNAKNTVYLQMNSLKPEDPAVYYCAAQVDRKYRWFNSWGQGTQVNVSS	high polyreactivity
QVQLVESGGGLVQAGGSLRLSCAASGYTFKAYAMGWYRQAPGKERELVAGISRSGGSTYYADSVKGRFTISRDNAKNTVYLQMNSLKPEDTAVYYCAADSFSWETVVPSVFEFDYWGQGTQVTVSS	low polyreactivity
QVQLVESGGGLVQAGGSLRLSCAASGYTFKAYAMGWYRQAPGKERELVGGISRSGGSTYYADSVKGRFTISRDNAKNTVYLQMNSLKPEDTAVYYCAADSFSWETVVPSVFEFDYWGQGTQGTVSS	low polyreactivity
QVQLVESGGGLVQAGGSLRLSCAASGYTFKTYAMGWYRQAPGKERELVAAIRTSGGSTYYADSVKGRFTISRDNAKNTVYLQMNSLKPEDTAVYYCAAAFNYYGSLYDYWGQGTQVTVSS	high polyreactivity
QVQLVESGGGLVQAGGSLRLSCAASGYTFLAYAMGWYRQAPGKERELVAAISRSGVSTYYADSVKGRFTISRDNAKNTVYLQMNILKPEDTAFYYCAKGVRYQQYHIMYYWGQGTQVTVSS	high polyreactivity

Sequence	polyreactivity (PSR sort gate)
QVQLVESGGGLVQAGGSLRLSCAASGYTFLVYTKGWYRQAPGKERELVATISWSGTSTDYADSVKGRFTISRDNAKNTVYLQMNSLKPEDTAVYYCNAKYPRAYLYGYKLFDSWGQGTQVTVSS	high polyreactivity
QVQLVESGGGLVQAGGSLRLSCAASGYTFNWYAMGWYRQAPGKERELVAAISWRSGRTYYADSVKGRFTISRDNAKNTVYLQMNSLKPEDTAVYYCAVTTTSGAPGGSYYYWGQGTQVTVSS	high polyreactivity
QVQLVESGGGLVQAGGSLRLSCAASGYTFNYYAMGWYRQAPGKERELVAAISASSDSTYYADSVKGRFTISRDNAKNTVYLQMNSLNPEDTAVYYCAAVSGRYRIYRYDYWGQGTQVTVSS	low polyreactivity
QVQLVESGGGLVQAGGSLRLSCAASGYTFPDYAMGWYRQAPGKERELVADITSAGNTYYADSVKGRFTISRDNAKNTVYLQMNSLKPEDTAVYYCNKDDLWENGISYSSPYRLDHWGQGTQVTVSS	low polyreactivity
QVQLVESGGGLVQAGGSLRLSCAASGYTFPIYAMGWYRQAPGKERELVATISSGGRTNYADSVKGRFTISRDNAKNTVYLQMKSLKPEDTAVSYCNARRLGWHALYLYDYWGQGTQVTVSS	high polyreactivity
QVQLVESGGGLVQAGGSLRLSCAASGYTFPIYAMGWYRQAPGTERELVAGISKNGGSTYYADSVKGRFTISRDNAKNTVYLQMNSLKPVDTAVYYCNASAWGRPYYLGSYFVYPGYEYWGQGTEVTVSS	low polyreactivity
QVQLVESGGGLVQAGGSLRLSCAASGYTFPLYAMGLYRQAPGKEWELVADINIGGASTYYADSVKGRFTISRDHAKNTVYLQMNSLKPEDTAVYYCAKEYYDGYFPTFDYDYWGQGTQVTGSS	low polyreactivity
QVQLVESGGGLVQAGGSLRLSCAASGYTFPLYAMGWYRQAPGKERELVATISSSGSRTYYADSVKGRFTISRDNAKNTVYLQMNSLKPEDTAVYYCAARYRAYVKLTSYDWGQGTQVTVSS	high polyreactivity
QVQLVESGGGLVQAGGSLRLSCAASGYTFPQYAMGWYRQAPGKERELVAAITRRGGSTYYADSVKGRFTISRDNAKNTVYLQMNSLKPEDTAVYYCASDSYPYSLGGDYWGQGTQVTVSS	high polyreactivity
QVQLVESGGGLVQAGGSLRLSCAASGYTFPSNAMGWYRQAPGKERELVAAISSGGRTNYADSVKGRFTISRDNAKNTVYLQMNSLKPEDTGVYYCNADGGPCYPRAYDYWGQGTQVTVSS	low polyreactivity
QVQLVESGGGLVQAGGSLRLSCAASGYTFQGYAMGWYRQAPGKERELVAGISRSGGRTYYADSVKGRFTISRDNAKNTVYLQMNSLKPEDTAVYYCAASYQVRYDYWGQGTQVTVSS	high polyreactivity
QVQLVESGGGLVQAGGSLRLSCAASGYTFQKYGMGWYRQAPGNERELVAAITRSSGNTYYADSVKGRFTISRDNAKNTVYLQMNSLKPEDTAVDYCAAYYWGGVKYNYWGQGTQVTVSS	high polyreactivity
QVQLVESGGGLVQAGGSLRLSCAASGYTFQYYAMGWYRQAPGKERELVAAISRGVGSTTYYADSVKGRFTISRDNAKNTVYLQMNSLKPEDTAVYYCNHDFLGDEYDYWGQGTQVTVSS	high polyreactivity
QVQLVESGGGLVQAGGSLRLSCAASGYTFRGYAMGWYRQAPGKEREFVAAMNWSDGSTYYADSVKGRFTISRDNPKNTVYLQMNSLKPEDTAVYYCNADQYYRVPDNYWGQGTQVTVSS	low polyreactivity
QVQLVESGGGLVQAGGSLRLSCAASGYTFRHYVMGWYRQAPGKERELVAAITYSGGSTYYADSVKGRFTISRDNAKNTVYLQMNSLKPEDTAVYYCAARRRRSDPYDFWGQGTQVTVSS	high polyreactivity
QVQLVESGGGLVQAGGSLRLSCAASGYTFRYNAMGWYRQAPGKERELVAAISSSGGRTYYADSVKGRFTISRDYAKNTVYLQMNSLKPEDTAVYYCAADSSVKYWRYQAAYDYWGQGTQVTVSS	high polyreactivity
QVQLVESGGGLVQAGGSLRLSCAASGYTFSAYAMGWYRQAPGKERELVAVINRSGVRTYYADSVKGRFTISRDNAKNTVYLQMNSLKPEDTAVYYCAADYRNTVLEMDYWGQGTQVTVSS	high polyreactivity
QVQLVESGGGLVQAGGSLRLSCAASGYTFSGYAMGWYRQAPGKERELVAAISKRGGSTYYADSVKGRFTISRDNAKNTVYLQMNSLKPEDTAVYYCAKRSGYRSHYGYWGQGTQVTVSS	high polyreactivity
QVQLVESGGGLVQAGGSLRLSCAASGYTFSNNAMGWYRQAPGKERELFPTINSGGSTNYADSVKGRFTISRDNAKNTVYLQMNSLKPEDTAVYYCAAREDLYLYYNGQRVQYDYWGQGTQVTVSS	low polyreactivity
QVQLVESGGGLVQAGGSLRLSCAASGYTFSRYAMGWYRPAPGKERELVAAITGRGGSTYYADSVKGRFTISRDNAKNTVYLLMNSLKPEDTAVYYCAVGRYPYVWRYYYWGQGTQVTVSS	high polyreactivity
